Data on one substance can be found in paper PMC12477886.

Holding throughout (experiment): BLI
Background: BLI is a label-free optical method that tracks binding on a fibre tip over time.

Experiment [1] has as its target M15 single reverted mutant G51A (light chain A51 reverted to germline G) (human).
Experiment [2] addresses M15 single reverted mutant S32I (light chain I32 reverted to germline S) (human).
In experiment [3] the target is M15 single reverted mutant T57I (light chain I57 reverted to germline T) (human).
Experiment [4] concerns the target M15 triple mutant (light chain S32I, G51A and T57I all reverted to germline) (human).

On to “SARS-CoV-2 WA1/2020 S2 protein (stabilized prefusion spike S2 trimer) (from UniProt P0DTC2) (domain or fragment)”, for which the fold decrease in binding affinity compared with M15 in experiment [1] amounted to 1.88 fold; in experiment [2], 1.45 fold; in experiment [3], 1.02 fold; in experiment [4] it was 12 fold.
